“Also recorded” adds a separate entry of the source.
settings: glycan changed form

Substance | other: proteolytic processing | other: pseudovirus infectivity, fold_change | other: pseudovirus infectivity | other: neutralisation sensitivity, other: maximum % neutralisation
SARS-CoV-2 spike, BA.1 (Omicron): 50 μM kifunensine | no change | abolishes |  | 
SARS-CoV-2 spike, B.1.617.2 (Delta): 50 μM kifunensine | no change |  | decreases | 
SARS-CoV-2 spike, BA.1 (Omicron): 20 μM swainsonine | no change | no change |  | no change, 74 ± 7 vs 54 ± 7
SARS-CoV-2 spike, B.1.617.2 (Delta): 20 μM swainsonine |  |  | no change | 
SARS-CoV-2 spike, BA.1 (Omicron): GnTI- cells | no change | abolishes |  | 
SARS-CoV-2 spike, D614G: 50 μM kifunensine | no change |  | decreases | no change, 55 ± 9 vs 64 ± 4
SARS-CoV-2 spike, D614G: 20 μM swainsonine |  |  | no change | 
SARS-CoV-2 spike, B.1.617.2 (Delta): GnTI- cells | no change |  | decreases | 

same assay, conditions: glycan lost

Substance | other: pseudovirus infectivity, fold_change | other: neutralisation sensitivity | other: neutralisation sensitivity, other: maximum % neutralisation | other: proteolytic processing | other: neutralisation sensitivity, fold_change | other: pseudovirus particle yield (p24) | other: pseudovirus infectivity
SARS-CoV-2 spike, BA.1 (Omicron): N801A | abolishes |  |  |  |  |  | 
SARS-CoV-2 spike, BA.1 (Omicron): N717A | decreases |  |  |  |  |  | 
SARS-CoV-2 spike, D614G: N343Q | decreases | no change |  |  |  |  | 
SARS-CoV-2 spike, BA.1 (Omicron): N74Q |  | no change | no change, 77 ± 9 vs 79 ± 7 |  |  |  | 
SARS-CoV-2 spike, BA.1 (Omicron): N616Q |  | no change |  |  |  |  | 
SARS-CoV-2 spike, BA.1 (Omicron): N1134Q |  | no change | no change, 73 ± 15 vs 79 ± 7 |  |  |  | 
SARS-CoV-2 spike, BA.1 (Omicron): N801Q |  |  |  | decreases |  |  | 
SARS-CoV-2 spike, BA.4 (Omicron): N717Q | abolishes |  |  |  |  |  | 
SARS-CoV-2 spike, BA.1 (Omicron): N331Q |  | no change |  |  |  |  | 
SARS-CoV-2 spike, D614G: N17Q |  | no change |  |  |  |  | 
SARS-CoV-2 spike, D614G: N282Q |  | no change |  |  | decreases |  | 
SARS-CoV-2 spike, D614G: N1158Q |  | no change | no change, 63 ± 3 vs 64 ± 4 |  |  |  | 
SARS-CoV-2 spike, D614G: N1173Q |  | no change | no change, 73 ± 14 vs 64 ± 4; also recorded: decreases, 50 ± 5 vs 65 ± 7 |  |  |  | 
SARS-CoV-2 spike, D614G: N165Q |  | no change |  |  |  |  | 
SARS-CoV-2 spike, BA.1 (Omicron): N234Q |  |  | no change, 87 ± 4 vs 79 ± 7 |  |  |  | 
SARS-CoV-2 spike, D614G: N603Q |  | no change | no change, 62 ± 3 vs 64 ± 4 |  |  |  | 
SARS-CoV-2 spike, BA.1 (Omicron): N657Q |  | no change |  |  |  |  | 
SARS-CoV-2 spike, D614G: N331Q |  | no change | no change, 60 ± 4 vs 64 ± 4 |  |  |  | 
SARS-CoV-2 spike, D614G: N1074Q | decreases | no change | no change, 61 ± 4 vs 64 ± 4; also recorded: decreases, 45 ± 6 vs 65 ± 7 |  |  |  | 
SARS-CoV-2 spike, D614G: N122Q | decreases | no change | no change, 62 ± 9 vs 64 ± 4; also recorded: decreases, 29 ± 4 vs 65 ± 7 |  |  |  | 
SARS-CoV-2 spike, BA.1 (Omicron): N1194Q |  | no change | no change, 75 ± 11 vs 79 ± 7 |  |  |  | 
SARS-CoV-2 spike, BA.1 (Omicron): N709Q |  | no change |  |  |  |  | 
SARS-CoV-2 spike, BA.1 (Omicron): N603Q |  | no change |  |  |  |  | 
SARS-CoV-2 spike, BA.4 (Omicron): N801Q | abolishes |  |  |  |  |  | 
SARS-CoV-2 spike, D614G: N1194Q |  | no change | no change, 66 ± 3 vs 64 ± 4; also recorded: no change, 60 ± 3 vs 65 ± 7 |  |  |  | 
SARS-CoV-2 spike, D614G: N616Q |  | no change | no change, 64 ± 7 vs 64 ± 4 |  |  |  | 

Substance | other: pseudovirus infectivity, fold_change | other: neutralisation sensitivity | other: neutralisation sensitivity, other: maximum % neutralisation | other: proteolytic processing | other: neutralisation sensitivity, fold_change | other: pseudovirus particle yield (p24) | other: pseudovirus infectivity
SARS-CoV-2 spike, BA.1 (Omicron): N282Q |  | no change |  |  |  |  | 
SARS-CoV-2 spike, D614G: N709Q |  | no change | no change, 69 ± 6 vs 64 ± 4 |  |  |  | 
SARS-CoV-2 spike, BA.1 (Omicron): N149Q |  | no change |  |  |  |  | 
SARS-CoV-2 spike, BQ.1.1 (Omicron): N801Q | abolishes |  |  |  |  |  | 
SARS-CoV-2 spike, BA.1 (Omicron): N122Q |  | no change | decreases, 36 ± 19 vs 79 ± 7 |  |  |  | 
SARS-CoV-2 spike, BA.1 (Omicron): N1098Q |  | no change | no change, 85 ± 7 vs 79 ± 7 |  |  | decreases | 
SARS-CoV-2 spike, BA.1 (Omicron): N1173Q |  | no change | no change, 80 ± 9 vs 79 ± 7 |  |  |  | 
SARS-CoV-2 spike, BA.1 (Omicron): N165Q |  | no change | no change, 79 ± 7 vs 79 ± 7 |  |  |  | 
SARS-CoV-2 spike, B.1.617.2 (Delta): N717Q |  |  |  |  |  |  | no change
SARS-CoV-2 spike, D614G: N149Q |  | no change |  |  |  |  | 
SARS-CoV-2 spike, BA.1 (Omicron): N717Q |  |  |  | decreases |  |  | 
SARS-CoV-2 spike, D614G: N1134Q |  | no change | no change, 65 ± 5 vs 64 ± 4; also recorded: no change, 65 ± 4 vs 65 ± 7 |  |  |  | 
SARS-CoV-2 spike, D614G: N234Q |  |  |  |  | decreases |  | 
SARS-CoV-2 spike, BQ.1.1 (Omicron): N717Q | abolishes |  |  |  |  |  | 
SARS-CoV-2 spike, BA.1 (Omicron): N61Q |  | no change | no change, 73 ± 10 vs 79 ± 7 |  |  |  | 
SARS-CoV-2 spike, D614G: N717Q | decreases | no change | no change, 67 ± 9 vs 64 ± 4; also recorded: decreases, 43 ± 6 vs 65 ± 7 |  |  |  | 
SARS-CoV-2 spike, D614G: N801Q | decreases | no change | no change, 63 ± 4 vs 64 ± 4; also recorded: no change, 74 ± 7 vs 65 ± 7 |  |  |  | 
SARS-CoV-2 spike, D614G: N657Q |  | no change | no change, 58 ± 4 vs 64 ± 4 |  |  |  | 
SARS-CoV-2 spike, D614G: N1098Q |  | no change | no change, 69 ± 11 vs 64 ± 4 |  |  |  | 
SARS-CoV-2 spike, D614G: N74Q |  | no change | no change, 62 ± 3 vs 64 ± 4 |  |  |  | 
SARS-CoV-2 spike, B.1.617.2 (Delta): N801Q |  |  |  |  |  |  | no change
SARS-CoV-2 spike, D614G: N61Q | decreases | no change | no change, 61 ± 4 vs 64 ± 4 | decreases |  |  | 
SARS-CoV-2 spike, BA.1 (Omicron): N1074Q |  | no change | no change, 86 ± 13 vs 79 ± 7 |  |  | decreases | 
SARS-CoV-2 spike, BA.1 (Omicron): N1158Q |  | no change | no change, 86 ± 34 vs 79 ± 7 |  |  |  | 
SARS-CoV-2 spike, BA.1 (Omicron): N17Q |  | no change |  |  |  |  | 
